The series concerns the molecule itself. Description: cross-linking.

The text below walks through data of publication PMC11321297 (Cell Insight, 2024).

B1: His-GLUD1^K84R (enzyme)
chain: not shown
As for B1, the “stoichiometry N” value turned out to be 6.

As usually defined, the stoichiometry N is a count of units in the complex or per binding partner.
